Results reported in the DeepSol protein solubility set.

Assay: soluble on expression in E. coli; label from the status in PepcDB or PDB records

Soluble on expression in E. coli, not soluble:
MGSDKIHHHHHHMSCSHEHESLLVTSPNKSAQAVADALEKHPITFSLPQQFYSDADVFQVEMEQIFYKEWLFVGITGEIPDNGNFITLDIGDNPITVIRDQNGEVRAFHNTCRHRGSKICLVKQGKVPKLVCPYHQWTYELDGNLLFAGTEMGDDFDKNDYGLHKVNCRVAGGYIFVSLSENPTNIDGFFDDLTHYLEPYDLDNCKVAVESTLIEDANWKLVIENNRECYHCSGNHPELLNTLLEWDDTEDPRASDEFKAQVAAKQAMWEAEGIPYKHVSHGHGLRNRIVRMPLLEGTVSMTIDGKAGCKKLMGRIKNPDLGSMRILHLPNSWSHAMGDHLIAFQVIPLGAQKTQVTTKWIVHKDAVEGVDYDVAQLRQVWDATNVQDRTLAENNQKGINSKAYQPGPYSTTFEFGVVNFIDWFSHTMQSNIKASAEKS, MGSDKIHHHHHHMSDDTIDRFFGYLNWLFNPFHGLKTTEVYDLIGTSSLTENALYLNLGYWRKADTIDEASEALALLVAKRGGMGPGDIVLDCGYGFGDQDILWARQLKPEKIIGLNITSSQVERARKRVADAGLEQSIDLREGSATAMPIENESIDLVVSVESAFHYRTREAFFREAFRVLRPGGRLVTADIVPTENSGNPFRRMEQWFSWNLVAGKFNIPQENYYLIPSYQNKLTKAGFVQIDIKSIRDDVYEPLHAYLAKNRTFFAKMHPLARIMAQLTLNRSAESVYAGLDYILSYAEKP, MGSDKIHHHHHHMSDKHYDALPKAHTTYANIVKSLLPIGNNGKISRDELPQATYFVDDLHIDQNNLNDYRKICGFADNGNVPITYFSVLSQALQMNMMVKEPFPFAMLGLVHVDNSVTQYRAIGEIETVAMSVMFDNLRDHAQGQQFDFVTTVKSADEIIWEGTSTYLSRSKKPATSKDKKSTPRPVTVKPSINKEGVHSIFEVPEDIGRRYAFVSGDFNLIHLHPLSARAFGFPKAIAHGMWSKAKCLAMMGELPDACTVEVSFKLPIFLPSEVELITDPLAQLSSTEDTCQFGLFSAKNDKPHLAGVIALRDENK, MGSDKIHHHHHHMSDLKVLVIGYMHPRNDKRVFRTVQALSKRSEVIYQYWTEKEELPFKENNIRYIPVKCSNRGNIFQKAVKRKQVDEKIRHLVETEDYDILYMHHFPATKPLKPFVVAKKRGKKIVYDIHEYHPQNFLSTLPRPLSDLKGFVMWRIFKKQLQLSDLCIFVSEETRNDVVAKTGLDPEKTFIVPNYASMKIEPDPDKKKMEIVLVGKTPRNLIHEKKLIRALVERGFSFRIIGMDSEAFSDVPHTYTSFLPYEKMMEELSKSMFSLISYKPTGKEDKNYLYSLPHKFYDSIAAGTPVIVKNSFVSMAKMVEDLGIGVVIDPANVEESLKRIENACQRYEEILENIRRHQEGFVWDEKKEEEFLERVMG, MGSDKIHHHHHHMSDRKEDLERQINLTFAFLSANSYSRKFLTQVWIRDNVGDYKGLTDTAFRKKLQRDLAYLRRVGVPIEQFTVTSGIAEGQQAYRLAQDSYKLPEVEFTPDEAAVLGMAGEMGHNQELGAFARSGWTKLAAGGAQRDLSTSTALTNAGDLGSLSAKTLDAIIKARQLGKQISFEYRRAPKDAPSLRHMDPWGLVPERDRIYLVGFDLDRQEARTFRITRVRNINLGADATHPMPAGTNLQDMVRAQLRRKSVLIDATLRITPGRAVELRAAGVETSDGAWFLEDVDRDWLVRTAAAHAPEALVIEPKDVIDDVIALLRKVENEVV, MGSDKIHHHHHHMSDRLPPLTALRAFDAAARHMSFAKAADELSVTPAALSFQIKSLEEHLGAPLFRRLNRAVELTEAGAALAPGVDEGFQALSAAWRQARRVLDTTSLTVTAGPALTAKWLAPRLYEFARSHPDIDLRLSAGLKMVDLRRDHVDVAIRFGYSVDDYLVAQAARPEWLTPVMTPELCAKYPTPQSLRDAPLIYDDSIGFLSPSCDWPTWFRAMGLEFTPGHGTHFSHADHAIDAACAGLGVALGRRPMIIKDVQEGRLVAPFKVAIETDAKFHFLCLPSSQDRPQIRAFREWFFSEIEKTAHMWDDFTIIPVKDL, MGSDKIHHHHHHMSDSEKEILKRIKDNPFISQRELAEAIGLSRPSVANIISGLIQKEYVMGKAYVLNEDYPIVCIGAANVDRKFYVHKDLVAETSNPVTSTRSIGGVARNIAENLGRLGETVAFLSASGQDSEWEMIKRLSTPFMNLDHVQQFENASTGSYTALISKEGDMTYGLADMEVFDYITPEFLIKRSHLLKKAKCIIVDLNLGKEALNFLCAYTTKHQIKLVITTVSSPKMKNMPDSLHAIDWIITNKDETETYLNLKIESTDDLKIAAKRWNDLGVKNVIVTNGVKELIYRSGEEEIIKSVMPSNSVKDVTGAGDSFCAAVVYSWLNGMSTEDILIAGMVNAKKTIETKYTVRQNLDQQQLYHDMEDYKNGKFTKVY, MGSDKIHHHHHHMSDVMNNSQIATQDNNLINELKTLIASAKQQAQVQVNAQMTLLYWQLGHRLQEHLLSNQRADYAKQIVKQVAQQLTYEYGKGFNEKSLRKMMQFYQAFPQQEIVSTLSRQLSWSHFVELLPIKAPVAREFYLQMAINDRWSVRTLRNRIDSMLFERTAVSKKPDELIKLELAQLENKQLSANMILKDPYMLDFLGVQDHYFEKDLEDAILRDLQQFLLELGSGFSFIGRQHRVQIGYYDFYIDLLFYNRKLKRLVAIDLKLGNFKAAYKGQMELYLRYLAKYEQEADERPPLGIILCASKDQEQVELLELDKSGIHVAEYLTALPPKEVLQQKLHQAISQNQQRFLAVNALDKDAGIASDAEEK, MGSDKIHHHHHHMSEAFLRFDGISVEFPGVKALDEVSFSARAGEVHALMGENGAGKSTLLKVLSGVNRPSSGQLWIDGQAHVFANAREALAHGIAIIYQELTLSPNLSVAENLLLGQLPERRGFIDRRTMKARAREILEELGEGDIDPATKVRELSIGQQQMIEIGRALLRDARIIAFDEPTSSLSVQETRQLKRIVARLRDEGRVVLYVTHRMEEVFEMCDAVTVFRDGRHIRTHETLEGLDHDMLVGEMVGRQIDDVYGFRPRDIGDVLMRIDGLQGRGVNEPVNLEVRRGEVLGLFGLVGAGRSELMRLVCGVEKASRGQVALRGETRVFASPHQAIRAGIAMCPEDRKSQGIFPVASVSDNLNISCRRFFRRWGMFRHAARETDNAKTYIQRLSIKTPSHRTPINTLSGGNQQKVILGRWLAEEIDLFVMDEPTRGIDVGARRDIYALLYDLAEQGKGVIVISSDLAEVSSICDRIGVMRDGVLVDIVPREQATQARLLGLALPA, MGSDKIHHHHHHMSEDILPITISLAGEKDTIRLGEDLALALKPGDCLTLIGDLGAGKSTLARAFIRAMADEPDLEVPSPTFTIIQTYTTRIPVAHLDLYRLSDVSELDELGIDEMLEDGICLIEWPDIAAEVLPPAQTITLQLTHSGEGRVAVIEAPAQQKARLDRVFAIREFLAKNGRGDATRRFLSGDASTRAYETISTDGPDLILMDWRRPMRGAIVADGKTYAEIVHLAQDARSFVAIGDYLRNSGFRAPEILAADIDQGILLLEDLGREGVLAADGTPIEERYLQSVACLATLHQTPRPALLPMRDGSTYDIPSFDRQAMKIEVSLLVEWYLPHKRGKALTDGEKQDYYAIWDGLIDALAGCETGLLLRDFHSPNILWQAQNSGIGQVGLIDFQDAMIGPTAYDLASIVQDARVTIPPELQTRLMSHYLNSRKATPAFDEAAFLKAFAIMSAQRNCKLAGIWVRLLERDKKPGYMKHMPRTFRYLADALSHPELAPLREWCVRMGMDFND, MGSDKIHHHHHHMSESAESVDLIKLPVSKLTLGMFVSAIDKNDQGRLAIANAGQIKHKDAILKLTKNGIKYVWVDTERSAEHCGFKRKVSNDSQVKKSIVTREKQQEQAQVILTEAKDLIRKVLSETFEGKAIEVAPFEALADSMIESVLLDEDALKCMSALRTKDAYLLEHSVNVAFLLVTFGKYLKLDRSMLREMAVGGILHDIGKIKVDNKVLHKPGKLTPEEFEHMKLHQVYALEIMSETKGLSQISKDVCLMHHEKLDGRGYPRGLKGDEIPLHGRMSCIVDIFDALTATRCYKEAMSPAAAFKILLSLTPFHLDQQLVYDFIRCIGVYPVGSLVELSDGRVGIVWASKDRDALHPIVKCFYSLKAKRYTEVVIVDLLKSELHIERGVSPSSLDIDPTPFY, MGSDKIHHHHHHMSESDGQSTPQDTREVIMEATFRALSKHGYKDLRVRDIGEEMEMSRQVIHYHFDGKYDLISSFLEYIIDQYEGSVEVDDETDPRTELDVRIDRCLFGPEFDDFSHWDRMKVYHELYAYAQNDDEHRALFNEHYDRLRKSISTVIEDGVEQGTFLDVDAELMGQLITDVIHAARGRRIALGHEDAPDEAKRAVNDFILDSLYPPQ, MGSDKIHHHHHHMSESWVAVTGATGFIGNALLQSLIKEGWKVRALTRRARVDDESTQWIEGDLHDRDALRKLVTGVSAVVHCAGQVRGSSLESFVRTNVEGTANLMQASLEQNPPPRFLLVSSLAARQPELSWYATSKHMAERLIDERSAGMACAIFRPTAVYGPGDKEMSPLFRITRRGILPMVGQPEMRFGLLHVADLVAAITCWLSTAVPVQGTYELDDGMPGGYDSQAVATIAQEVWKRPVRCVFFPAPLVSLIANINLWSARMLSYSPMLTPGKVRELRHPDWVCDIDPLTRALPGWRPCIHLRDALPQAV, MGSDKIHHHHHHMSETSDTIREAFTESAWIPSPKEVFGPDGSLTEEVGEENKSLIWTLLKQIRPGMDLSKVVLPTFILEPRSFLEKLADYYYHADLISEAVAEPDPFQRIVKVTKFFLSGFYKKPKGLKKPYNPILGETFRCKWEHPDGSTTFYMAEQVSHHPPVSSLFITNRKAGFNISGTILAKSKYYGNSLSAILAGKLRLTLLNLGETYIVNLPYANCKGIMIGTMTMELGGEVNIECEKTGYRTTLDFKLKPMLGGAYNQIEGSIKYGSDRLASIEGAWDGVIRIKGPDGKKELWNPTPEVIKTRLPRYEINMDEQGEWESAKLWRHVTEAISNEDQYKATEEKTALENDQRARAKSGIPHETKFFKKQHGDDYVYIHADYRPWDNNNDIQQIENNYVVKTISRHSKRKTGNSEQLGSDNTSEASESDEE, MGSDKIHHHHHHMSEVLKRRMRCAVYTRKSTDEGLDQEYNSIDAQRDAGHAYIASQRAEGWIPVADDYDDPAFSGGNMERPALQRMMADIEAGKIDVVVIYKIDRLTRSLADFSKMVEVFERYAVSFVSVTQQFNTTTSMGRLMLNILLSFAQFEREVTGERIRDKISASKRKGMWMGGVPPLGYDVENRRLVPNEREAKLIRHIFQRFVELGSSTALVKELKLDGVTSKAWTTQDGKTRDGRLIDKGHIYKLLSNRTYLGELRHKDQWYQAEHPPIINRELWDSVHAILETNGRVRGNTTRAKVPYLLKGIVFGNDGRALSPWHTTKKNGRRYRYYVPQRDAKEHAGASGLPRLPAAELESAVLDQLRAILRAPNLLGEMLPQAIKLDPTLDEAKITVAMTRLDAIWDQLFPAEQTRIVKLLVEKVIVSPNDLEVRLRANGIERLVLELRPEPVEQQEVARA, MGSDKIHHHHHHMSEWDKNRWKEGRSSEYTWKGVVFMAKIMKQFLKGNDLSLSIQEIFKNELIPCTVRHLPKGEILWHDKEPHPYSYFIINGIIKLHVVTKEGREKALFYYTNGSLLGFQNLAKEKRTITTATAILPTSLYACEFSLLYTFVMNNPQYFAAFTSYIFHHMAVEAEEIVNISLYNTAERLAALLVLLAEEFPQNEQGYIEIPFNNEELATMVGACRNSVFNALSVFQKQKLIHKGRGRLVIADLPRLKEYV
